B1: F1*; the commonest letter at each place (parent)
chain: GAGACCGCAACTGAAAAGTTGTTATCACTTGTCGTAAGACACTTTGGATGGGTTGAAGTTCTGCACGTAGAAGCAAAAGGC

Variants of: B1
Test: fraction ligated after 30 min (ligated reads / total reads); higher = more ligase activity
Conditions: with F1*sub RNA substrate (template-directed ligation), 42 °C
Method: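 Chip-synthesised pool of F1* ligase ribozyme variants (all single and double substitutions, single, double and triple deletions in the catalytic core and GAA bulge, plus designed variants) was transcribed with T7 and reacted as a pool with excess substrate F1*sub for 30 min at 42 C in 50 mM EPPS pH 8.5, 25 mM MgCl2. Ligated and unligated bands were separated by PAGE, barcoded by RT and deep sequenced; fraction ligated = ligated reads / total reads per variant, relative activity = FL / FL of wild type (0.826). Sequences are the DNA template of the ribozyme.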

Variant | fraction ligated
A24C G31T | 0.0308
A24C G34A | 0.727
A24C G34C | 0.185
A24C G34T | 0.648
A24C G38A | 0.508
A24C G38C | 0.274
A24C G38T | 0.468
A24C G46A | 0.335
A24C G46C | 0.043
A24C G46T | 0.0441
A24C G47A | 0.806
A24C G47C | 0.00476
A24C G47T | 0.0249
A24C G50A | 0.431
A24C G50C | 0.532
A24C G50T | 0.646
A24C G55A | 0.649
A24C G55C | 0.158
A24C G55T | 0.0793
A24C T25A | 0.793
A24C T25C | 0.793

Variant | fraction ligated
A24C T25G | 0.787
A24C T29A | 0.747
A24C T29C | 0.28
A24C T29G | 0.766
A24C T30A | 0.414
A24C T30C | 0.168
A24C T30G | 0.57
A24C T32A | 0.0611
A24C T32C | 0.062
A24C T32G | 0.144
A24C T35A | 0.782
A24C T35C | 0.764
A24C T35G | 0.759
A24C T43A | 0.625
A24C T43C | 0.231
A24C T43G | 0.792
A24C T44A | 0.759
A24C T44C | 0.563
A24C T44G | 0.292
A24C T45A | 0.152
A24C T45C | 0.0358

Variant | fraction ligated
A24C T45G | 0.0118
A24C T49A | 0.805
A24C T49C | 0.731
A24C T49G | 0.806
A24G | 0.777
A24G A27C | 0.776
A24G A27G | 0.701
A24G A27T | 0.126
A24G A36C | 0.833
A24G A36G | 0.813
A24G A36T | 0.789
A24G A37C | 0.796
A24G A37G | 0.852
A24G A37T | 0.764
A24G A39C | 0.504
A24G A39G | 0.827
A24G A39T | 0.664
A24G A41C | 0.034
A24G A41G | 0.691
A24G A41T | 0.701
A24G A48C | 0.729

Variant | fraction ligated
A24G A48G | 0.762
A24G A48T | 0.0442
A24G A56C | 0.0669
A24G A56G | 0.0845
A24G A56T | 0.0729
A24G A57C | 0.632
A24G A57G | 0.762
A24G A57T | 0.728
A24G C26A | 0.711
A24G C26G | 0.268
A24G C26T | 0.728
A24G C28A | 0.719
A24G C28G | 0.701
A24G C28T | 0.743
A24G C33A | 0.746
A24G C33G | 0.785
A24G C33T | 0.832
A24G C40A | 0.731
A24G C40G | 0.802
A24G C40T | 0.84
A24G C42A | 0.796
